The DeepSol protein solubility set

Assay: soluble on expression in E. coli; label from the status in PepcDB or PDB records

| Sequence | soluble on expression in E. coli |
| --- | --- |
| MGSIIFLEDRAFQGRIYGCTTDCPNLQPYFSRCNSIVVQSGCWMIYERPNYQGHQYFLRRGEYPDYQQWMGLSDSIRSCCLIPPHSGAYRMKIYDRDELRGQMSELTDDCLSVQDRFHLTEIHSLNVLEGSWILYEMPNYRGRQYLLRPGEYRRFLDWGAPNAKVGSLRRVMDLYLEHHHHHH | soluble |
| MKSVTVFLLAGTTFAIYFDGKGSRHSSSSSEEHGGHGPRPGPGGPGRGGNCSPGWLRFERQSGVWCVFVGLAGINDNSFAQKDGQSACVALGATLTGFQNDKERMAVADEAGRKLGAAGGGIAGLWLGATTRAGCKAGACGPLNTFMWTDGVTTGTAGLKWATGEPDSVDYPGTAACIQQFIMLPNWVPGPYDLEGFRTGFTHGILYKFSCIAPVTPGTRMFACGKMAAG | not soluble |
| MHHHHHHAIGYVWNTLYGWVDTGTGSLAAANLTARMQPISHHLAHPDTKRRFHELVCASGQIEHLTPIAAVAATDADILRAHSAAHLENMKRVSNLPTGGDTGDGITMMGNGGLEIARLSAGGAVELTRRVATGELSAGYALVNPPGHHAPHNAAMGFCIFNNTSVAAGYARAVLGMERVAILDWDVHHGNGTQDIWWNDPSVLTISLHQHLCFPPDSGYSTERGAGNGHGYNINVPLPPGSGNAAYLHAMDQVVLPALRAYRPQLIIVGSGFDASMLDPLARMMVTADGFRQMARRTIDCAADICDGRIVFVQEGGYSPHYLPFCGLAVIEELTGVRSLPDPYHEFLAGMGGNTLLDAERAAIEEIVPLLADIR | soluble |
| EVENNFPCSLYKDEIMKEIERESKRIKLNDNDDEGNKKIIAPRIFISDDKDSLKCPCDPEMVSNSTCRFFVCKCVERRAEVTSNNEVVVKEEYKDEYADIPEHKPTYDKM | soluble |
| MSAVLNGKKPVSILLLGTDTGALGRNYKGRTDTIILATINPKTKTTTLMSLPRDSEVAVSGFEQDFPTKLNAAYAYGSAGTTIKTVQKWLNVPIDYYALINMGGMKKVVDEIGGVDITPIRTFTYEGYTFTKGQKEHMNGAKALAYSRMRYDDPLGDYGRQQRQRQLITAIIGESASASNLLKQDFLNSLAKQTRTDLTFGNLTSIVTNYRSATKNIVSDHAQGTGKMIDGQSFEVVSQSEKQRVTNVLRKSLNLKAATTGEKFANQNLEHHHHHH | soluble |
| MSLMFHVVDDSEMLREMLVDMIEIYDCNVMTFASASEYLEYVRSDAFKAPSAVLTDVHMPQMSGYEMMEQVLAIDPSIRFAILSGEPDIPARYQDKVCLFLGKPYTGDQIQNMIYIFKQCELNSASEGHHHHHH | soluble |
| MFQRLFGRERHANRAITDALYAQIVAAARQTVFYSHWNVPDTPLGRFEMLSLHMFLFQHRLRGEGGVAQEIAQVLIDEFFLDVDHSLRELGIGDVGVPKRMKKLAKMFYGRTAAYDDALDRNDRDGLTAALARNVRPDAGTWPEAPQLADYVADACRQLAAQPSQSIVSGTAVFPLAKGGALEHHHHHH | not soluble |
| MKSPQAQQILDQARRLLYEKAMVKINGQYVGTVAAIPQSDHHDLNYTEVFIRDNVPVMIFLLLQNETEIVQNFLEICLTLQSKGFPTYGIFPTSFVETENHELKADYGQRAIGRVCSVDASLWWPILAYYYVQRTGNEAWARQTHVQLGLQKFLNLILHPVFRDAPTLFVPDGAFMIDRPMDVWGAPLEIQTLLYGALKSAAGLLLIDLKAKGYCSNKDHPFDSFTMEQSHQFNLSVDWLKKLRTYLLKHYWINCNIVQALRRRPTEQYGEEASNEHNVHTETIPNWLQDWLGDRGGYLIGNIRTGRPDFRFFSLGNCLGAIFDVTSLAQQRSFFRLVLNNQRELCAQMPLRICHPPLKDDDWRSKTGFDRKNLPWCYHNAGHWPCLFWFLVVAVLRHSCHSNYGTVEYAEMGNLIRNNYEVLLRRLPKHKWAEYFDGPTGFWVGQQSRSYQTWTIVGLLLVHHFTEVNPDDALMFDLPSLKSLHQALHLEHHHHHH | not soluble |
| MKEHIAAVHKQTIAQAAERLFLERGFDGTSISDICAASGYSRRTVYRYFDTKEEILYYIVANGLEQLRDRLTDIVQAEQPFLAKYEHICKAMRAYYEHCPISARAVHQFQPKALETVTPTMETIFSLGTAINDALARWIEQGIAEGVVRETADVMMTVYVFSAQLHALFDLVETKGAFLLPTLGKTKEQFFAYGQKMIFNSLAKEPLL | soluble |
| TELTLKPGTLTLAQLRAIHAAPVRLQLDASAAPAIDASVACVEQIIAEDRTAYGINTGFGLLASTRIASHDLENLQRSLVLSHAAGIGAPLDDDLVRLIMVLKINSLSRGFSGIRRKVIDALIALVNAEVYPHIPLKGSVGASGDLAPLAHMSLVLLGEGKARYKGQWLSATEALAVAGLEPLTLAAKEGLALLNGTQASTAYALRGLFYAEDLYAAAIACGGLSVEAVLGSRSPFDARIHEARGQRGQIDTAACFRDLLGDSSEVSLSHKNADKVQDPYSLRCQPQVMGACLTQLRQAAEVLGIEANAVSDNPLVFAAEGDVISGGNFHAEPVAMAADNLALAIAEIGSLSERRISLMMDKHMSQLPPFLVENGGVNSGFMIAQVTAAALASENKALSHPHSVDSLPTSANQEDHVSMAPAAGKRLWEMAENTRGVLAIEWLGACQGLDLRKGLKTSAKLEKARQALRSEVAHYDRDRFFAPDIEKAVELLAKGSLTGLLPAGVLPSL | soluble |
| MSDTPSTSSVFLPTWPTRRTDANLYPNGSTKSDELVLHDYGLEEIPMRYHIEQPEEDYDPQNVKKLDLTHNSFVILRGLTTFNNVSVLDVSFNSLSALPEDIGTLSSLTTLIARNNLLEHLPKGLQLLENLEHLYLSGNRLEYVPPVILTMRKLKTLHLGGNYIDSCPSNISVLTLLRVLYLGGNRLREIPASIGCLDELENLGLCDNILETIPSTLGDLHYLETLSLHNNRLRTLPTDILNLRRLQQLSLRNNPLVHSFVHNMDLAPPSLKELSGRTVRQNYHKVPNLDEILPSDLVAYLGSACQCVNPECQGVYFDARVEHIKFVDFCGKYRVPLMQFLCSPRCSAGVPSVDYDTSSESEEEIEPIMRRVLLG | not soluble |
| MSLRSEVKAEDTWRLEDIFPSDEAWNKEFQAVKELIPNLSKYKGKLADSADHLYEALTYQDKVMERLGRLYTYAHMRSDQDTGNSFYQGLNDKAGNLYTQAESATAYLVPEILSIEEDKLQQFILEKEELKLYSHAIEEITKERPHVLSEKEEALLAEASEVLGSSSNTFSVLNNADITFPSIKDEDGNEKQITHGNFINFLESENREVRKNAFDAVYKTYGQYKNTMATTLSGTVKKDNFYARVKKYKSAREAALSNNSIPEEVYDNLVKTINKHLPLLHRYIALRKKVLELDEVHIYDLYTPLVKDAGMKVTYEEAKDYMLKGLAPLGEEYASILKEGLENRWVDVYENKGKRNGAYSSGAYGTNPYILMNWHNNVNNLFTLVHEFGHSVHSYYTRKHQPYPYGNYSIFVAEVASTTNEALLGEYLLNNLEDEKQRLYILNHMLEGFRGTVFRQTMFAEFEHLIHTKAQEGEPLTPELLTNVYYDLNKKYFGDGMVIDKEIGLEWSRIPHFYYNYYVYQYATGYSAAQALSSQILKEGKPAVDRYIDFLKAGSSQYPIDVLKKAGVDMTSPEPIEAACKMFEEKLDEMEELLMKVKEGHHHHHH | soluble |
| KVWAFDIQPQALNNTRCRLQEAGYSNVRLILDGHENLKQYIPKPLDAAIFNFGWLPGGDKSLTTRTETSIAALSATLSLLKENGMLIAVLYPGHENGKQEAEAIEQWAKNLPQEQFAVLRYGFTNRKNSPPYLLVFEKLRQK | not soluble |
| MTKKLIKIWRKEMLALMNEDADWYRNEDTERFKRIQELARKIETANTRQFSSHISKERFEAYQKMGLQFKEIAEEFHITTTALQQWRKDNGYPIYNKNNRK | not soluble |
| SLKNKTLIALLLACSPTLAFAHNLTVGSPVPAVGVEKHGEIVLQDNNINYQKWRSADLLGKVRVIQAIAGRSSSKEMNAPLMAAITAAKFPAESYQTTTIINQDDAIWGTSSFVKSSAQDSKKEFPWSSMVLDEFGLVAQAWQLQAESSAIIVQDKQGNVLFVKEGALNEADIQTVLGLIQQNL | not soluble |
| MKKRILAVAVTSMLLSASVFAQETVVPSRVGDLKFESDFPTQETMKNMLNEMDFQRATQAYLWGIPASSIMEWLNVSRNDFKFEEGQMGFFNTLKQKQGIITANFTTPYVIGTWNLEKTGPLIINLPEAKMAGMMLDVHQRVLSDLSLLGPDKGKGGKYLIVPPGEKYKDLNPKGYYVIRPKTNVVYGGIRILEPDVDRVVKQVVPNITTQPYADGKLGRKIPVAQVPEIDWTHIPKDGLEYWKTIHQIIQENPVEERDRFVMAQLKFLGIEKGKPFNPTEEQKKILLEASKVGRAMAQSNDYTKRFTQPYWKGTNWKDAISVSLDQRSENYDELDERAAWFYEAITVSRGMKSTIPGFGQRYLVTYQDSDGNWLSGEHTYKLHVPANVPASNFWSTTVYDENNRLMIINDAGSPDISSRKNLKVNSDGSIDVYYGPKPVKGYENNWVQTNPGEGWFTYFRFYGPTEKMFDKSWTMGDIELVKLEHHHHHH | soluble |
| QVQLQQPGAELVKPGTSVKLSCKASGYNFTSYWINWVKLRPGQGLEWIGDIYPGSGITNYNEKFKSKATLTVDTSSSTAYMQLSSLASEDSALYYCAGQYGNLWFAYWGQGTLVTVS | soluble |
| MNRHSAGQSTPVRVATLDQLKPGVPTAFDVDGDEVMVVRDGDSVYAISNLCSHAEAYLDMGVFHAESLEIECPLHVGRFDVRTGAPTALPCVLPVRAYDVVVDGTEILVAPKEADHHHHHH | soluble |
| MRATAIKIFSLSSALALLLHGCLSINLKQMLPEIRTYDLNASSFEITQCAKPLTEVRLISILSADLFNTKEIVFKAKDGQITHGKHQKWIDLPRNMLKTMFMQEAQKACLGVALPPYGAGAPTYAVRFTILSFSLLEKENSTYRAEFALGYDISVKGDSHSGVIIKHENISSLENKTTKTSKNGNQDFQESAIQSLQHVSVQAIQEAVSLIKKAIEAQSVSPLKK | not soluble |
| GPGSMDAIHILKENALRLVSAGQPISALHLVEVLCELQPDSDENRSLKIRCLYELREFDSVLKLAKQVTFACDQNSEVFLLAVKAAFELGDLKTCVQYAMTLINADSSKVVAMCFVAKAAELSGDPAKAVRFYKMALEADPFCGEAFSALTERHLLDRWEMLKLIDSLCIPAEVEVYRSTLKARIGSDYLTPGISGVPRTLVLLAGAKKEYESNNLRQALSLTTEILEVEPYHRQTLCLHLCILVDSKATPLLFEKAHFLSKNKCYTELAVYAIGCFYYSLSNYERAGRYFSRASELDCYFAEAWVAYGHCYAKLEEGEQALNVYRRTMNFFPGLNACCTYVGMQYSRVNQRSVARCFFEESLRKNSIDPLVLNELGVLALAEDNPKQALELFQKAYDSLPNRENPSEHSDCILFNLATMYRKLGRYEAAIDYYNQYVRSRPNASHGHCALGFTYHLSGNIKAAISCYHTAESIKPDSFCRDLLRRALELDFGACGRLSWDSERPHLSFSPGEVSFSTVSRRFRSESTAADSVAASPPPRVGRSLDFQHQ | not soluble |
| MEGEYRLTRSYAVVDITAQVDDSAILEPFACVMARARIGPRTRVGAHSVVGVGVSVGADCCIYHHVTLLNCDIGDRCVIHSGVAIGQDGFGFEVDQQTGKVRKKPQELSVRIGNEVEIGANTCIDRGSWRDTLIEDAVKIDNLVQIGHNVQVGANTFICGQAGVAGSTKIGRYCRFGGRSGAVDHLEIGDHVDVAANSVLTRNAPGHAVYAGFPAMPMREWRHQQVTLRRLSRAGKRQVDVSADDPEFPK | not soluble |
| VVGGTDADEGEWPWQVSLHALGQGHICGASLISPNWLVSAAHCYIDDRGFRYSDPTQWTAFLGLHDQSQRSAPGVQERRLKRIISHPFFNDFTFDYDIALLELEKPAEYSSMVRPISLPDASHVFPAGKAIWVTGWGHTQYGGTGALILQKGEIRVINQTTCENLLPQQITPRMMCVGFLSGGVDSCQGDSGGPLSSVEADGRIFQAGVVSWGDGCAQRNKPGVYTRLPLFRDWIKENTGV | soluble |
